# Laboratory results reported in IntAct's records for PubMed 12458226.
# Key:
# grip1_mouse Grip1 = grip1_mouse Grip1 (UniProt Q925T6)
# grip2_rat Grip2 = grip2_rat Grip2 (UniProt Q9WTW1)
# Sequence of grip2_rat Grip2 (Q9WTW1 whole entry): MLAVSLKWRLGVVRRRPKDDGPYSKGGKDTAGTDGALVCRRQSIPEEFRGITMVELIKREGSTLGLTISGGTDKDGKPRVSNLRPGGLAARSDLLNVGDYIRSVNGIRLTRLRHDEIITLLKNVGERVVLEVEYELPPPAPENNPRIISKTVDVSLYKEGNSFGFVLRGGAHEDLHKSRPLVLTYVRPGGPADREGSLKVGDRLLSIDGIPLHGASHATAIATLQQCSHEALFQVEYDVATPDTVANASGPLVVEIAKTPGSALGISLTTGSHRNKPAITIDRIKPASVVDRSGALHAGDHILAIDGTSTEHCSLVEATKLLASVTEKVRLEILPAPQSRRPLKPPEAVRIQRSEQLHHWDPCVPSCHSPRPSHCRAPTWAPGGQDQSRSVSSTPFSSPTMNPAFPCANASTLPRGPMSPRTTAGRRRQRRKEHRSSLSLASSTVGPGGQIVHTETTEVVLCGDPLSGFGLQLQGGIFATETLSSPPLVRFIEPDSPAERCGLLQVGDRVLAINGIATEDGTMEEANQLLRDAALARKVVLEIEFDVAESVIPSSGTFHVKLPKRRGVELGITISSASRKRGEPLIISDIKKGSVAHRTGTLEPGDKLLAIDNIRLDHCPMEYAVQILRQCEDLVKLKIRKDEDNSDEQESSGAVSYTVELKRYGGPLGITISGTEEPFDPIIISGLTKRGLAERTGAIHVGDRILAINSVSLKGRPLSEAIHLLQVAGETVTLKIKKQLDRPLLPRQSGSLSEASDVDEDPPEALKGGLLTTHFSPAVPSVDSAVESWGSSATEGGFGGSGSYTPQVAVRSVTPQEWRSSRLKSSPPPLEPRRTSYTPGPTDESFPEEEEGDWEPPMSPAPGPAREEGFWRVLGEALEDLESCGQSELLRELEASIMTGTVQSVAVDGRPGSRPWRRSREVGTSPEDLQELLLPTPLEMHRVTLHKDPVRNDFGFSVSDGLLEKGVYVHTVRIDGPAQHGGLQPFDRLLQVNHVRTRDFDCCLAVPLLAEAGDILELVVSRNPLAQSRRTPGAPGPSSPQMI
# Sequence of grip1_mouse Grip1 (Q925T6 whole entry): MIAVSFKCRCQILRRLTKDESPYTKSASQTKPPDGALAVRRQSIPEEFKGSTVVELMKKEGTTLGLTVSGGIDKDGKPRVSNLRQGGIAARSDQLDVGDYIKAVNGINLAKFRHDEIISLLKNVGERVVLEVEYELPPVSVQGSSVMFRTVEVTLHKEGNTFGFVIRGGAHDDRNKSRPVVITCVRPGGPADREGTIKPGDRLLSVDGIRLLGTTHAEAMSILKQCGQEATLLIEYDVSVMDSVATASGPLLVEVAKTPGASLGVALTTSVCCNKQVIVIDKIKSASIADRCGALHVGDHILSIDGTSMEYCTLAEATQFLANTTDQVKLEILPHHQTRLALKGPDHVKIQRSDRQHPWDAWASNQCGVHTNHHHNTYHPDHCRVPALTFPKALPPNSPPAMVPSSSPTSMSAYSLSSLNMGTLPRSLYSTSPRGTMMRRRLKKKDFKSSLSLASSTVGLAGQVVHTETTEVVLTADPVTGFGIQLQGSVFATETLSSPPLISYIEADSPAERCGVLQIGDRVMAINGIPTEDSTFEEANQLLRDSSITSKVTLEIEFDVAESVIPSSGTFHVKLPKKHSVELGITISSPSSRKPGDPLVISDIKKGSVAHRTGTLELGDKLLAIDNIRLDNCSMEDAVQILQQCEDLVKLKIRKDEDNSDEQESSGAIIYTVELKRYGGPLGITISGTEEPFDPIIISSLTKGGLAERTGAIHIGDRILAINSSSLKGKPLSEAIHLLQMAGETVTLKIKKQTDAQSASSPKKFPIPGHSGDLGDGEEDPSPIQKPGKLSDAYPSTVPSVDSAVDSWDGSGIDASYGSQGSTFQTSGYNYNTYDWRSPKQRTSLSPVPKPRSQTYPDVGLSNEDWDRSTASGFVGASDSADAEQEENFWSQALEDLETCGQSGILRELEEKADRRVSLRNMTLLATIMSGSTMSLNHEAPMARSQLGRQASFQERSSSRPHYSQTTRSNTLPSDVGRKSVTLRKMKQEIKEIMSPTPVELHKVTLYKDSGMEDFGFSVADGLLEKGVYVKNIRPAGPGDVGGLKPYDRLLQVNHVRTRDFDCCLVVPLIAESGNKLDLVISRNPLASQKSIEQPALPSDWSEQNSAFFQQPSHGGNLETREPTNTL
effect of a mutation on the interaction (grip1_mouse Grip1),effect of a mutation on the interaction (grip2_rat Grip2),Substance
disrupting interaction,disrupting interaction,"Chondroitin sulfate proteoglycan 4 (Mus musculus), Q8VHY0 V2327G"
disrupting interaction,disrupting interaction,"Chondroitin sulfate proteoglycan 4 (Mus musculus), Q8VHY0 W2326G"
disrupting interaction,disrupting interaction,"Chondroitin sulfate proteoglycan 4 (Mus musculus), Q8VHY0 Y2325G"
